Consider one substance from patent publication US7452690.

The data set relates to PL-FXa-b2AR fusion protein (ED-FXa cleavage site-beta2-adrenergic receptor) expressed on transiently transfected HEK293 cells.

As to Factor Xa, the “EFC activity as relative luminescent units (RLU)” value was “a difference in about 30000 RLUs was observed over a range in concentration of FXa of about 10^-3 to 10^1 µg/mL” and the “readings (chemiluminescence, β-galactosidase enzyme fragment complementation after cleavage)” value is given as “the transiently infected cells showed an increase in the readings from 0.01 ng/well to 1000 ng/well of Factor Xa”.
